Results on 21 sequences are retold here after a protein production outcome set (Wang et al. 2014).
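Note: failed if final PepcDB status was selected cloned or expressed and not failed if soluble or beyond.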

The series in a line: label from the status in PepcDB records.
For “MLCLTKKRHGLRIEIPPMPILPARPLKYLLASIIALTAGGPDIAVAQAPDSVISQPGTAPASSFRTDRLPGGDVKPSDGVGVFDRMGAKLPDLPPEKDYKGPIDEAYGAYQRGYYLTAMDKALPRAQLGDPAAQTLIGEILSQGLGVKKDVKGAAFWYGKAAEGGDPAAMFKYALMLMEGQGVPRDKVKADDYMRKAAEAGNPSAEFNWAQIVVADNPGEKGLKLALPFYEKSAEQGIADSQYAVAQIYATLKDLPEEKKRLAREWMARAARAGFDTAELDLGIWLVNGVGGPKDYVKGFEWLKLAANGGNVVAQNKLAHLYINAIGTPPNPVEAAKWYVLSRRAGLADPSLEDFYLGIEDDQQKAAIDAANKFRRR”, the protein production result is “failed”. With “MAESIFRKLRDGGEEGELAPALTIEETVASPFGLDVSGYLLTNLSSSILAGKSSSQGLVLITFSRSPSFYLQLLKQKGIVVSSSSKWIRILDCYTDPLGWIDQSSTSFSEGSSLIKLHKCVSDLKKLFSSIIEAGRVRSLSKGLYEIKSDCFGAELVGTGKTRFCVAIDSKREVIIYLNFESAQISSVFWSLNTDLHQEKVTNALEYISTMKANLEPLCPSSDGQRNALENLFSVHQDFGKGRFHVRFKLRKGRVRVMSEEYHVDQSGINFSPISSVDTVIAATKSLLPKASYLDLLFNYLVQFNLQLSEKERVEKEKVVLPFEHQDDGKSNEIYDGRRSLVDGKIETTPLSSMELQTDVVSSGKGGEIIYFRDSDDEHPDSDEDPDDDLDI” the entry was “not failed”. To “MKVNVSCSSVQTTIDILEENQGEDESILTLGQLRDRIATDNDVDVETMKLLHRGKFLQGADDVSLSTLNFKENDKIIVMGGKNALVDDAGFKMLMQYEKHNLSNLQKAYDLNLRDVADLERGFLEKPKQVEMGKKLEKKVKYFNEEAERHLETLDGMNIITETTPENQAKRNREKRKTLVNGIQTLLNQNDALLRRLQEYQSVLNGDIPE” belongs “not failed”; to “MSLSASLPLAIERRPAAWTFTLSRPEKRNALSAELVEALIDGVDAAHREQVPLLVFAGAGRNFSAGFDFTDYETQSEGDLLLRMVRIEMLLQRVAGSPSLTLALAHGRNFGAGVDLFAACKWRYCTPEAGFRMPGLKFGLVLGTRRFRDIVGADQALSILGSARAFDADEARRIGFVRDCAAQAQWPALIDAAAEAATALDPATRATLHRVLRDDHDDADLAALARSAAQPGFKARIRDYLAQPAAEGHHHHHH”, “not failed”. With “MRQYMRTFLLVAVIFVFGFSIRMLNAGYDDPLYTDDDGLQYFQESDSYYNYRLTENLAIRGIPGDAVIGGKIWDLHSYYPPGVPLDYPAGILLLAVILHAITGVIAPVSLRAVCLIMPPLLAPLAGVICFFTVKRFQGDIPAFIAGLLLVSAPFYLVKTVYGLYDTDMLILTLSMAVLFLFIEADAREVNRVPLSAIGGFILFLFSITWSGWQVMFYVTLVTFIILILTSGSRKPLRNILGNIPTGLHGSVYPFNLFNHLELIKLIMTPLHIHDLVDKSIWYPWPDSYTTVAELQPAYMDKVLGHISPALTVLGAAGIPAYYMLYRRKGSVGLPVIFISVWIATGALMLLEGIRFVMILIAPLSVSAGIFTGILLDCSRKFRFRWIKGVLFILIIFTVSAQLAISGNMVADLKPGYNDYFEESAHWIAENTPSDAVIITEWSYGHFYASEADRPVVYDGRLAYIETLPARGVWYGSSMDPEIPTTARDYWINLSLSSENRTLSLNILRMLANSGDDAYILLKNQTGSEVQAYRIMNEILGLNRESAMDVLMHRYGFSESEALRILNMTHPMTSRKIVVVVPEKMIGLIASKGDSGDMPAGTYSLIRLKDDVIEEEIINSSGNVTVLETTDGSYRINRKYRKSLLLELIMGVNDENFSLVYRNKQIKVYIINS” the entry was “failed”; with “MVRNSMKAEYDIDHLPHQTFYGDYSKTLVPMNKNSQIITKIKPKIRIIHIFAPEIINTDVKNFRTLVQSLTGKPEITKTGSKKKITNTNFPAPPGLPQDSGQEHTAELDNRIIGSHVVKEEWGSSSNTNTYFDFDGLIDLDEDDNIFSSRWFDLQQQ”, “failed”; with “TTSDNTALFYRHWPTLLPGAKKVIVLFHRGHEHSGRLQHIVDELAMPDTAFYAWDARGHGQTSGPRGYSPSLARSVQDVDEFVRFAASDSQVGLEEVVVIAQSVGAVMVATWVHDYAPAIRGLVLASPAFKVKLYVPLARPGLALWHRLRGLFFINSYVKGRYLTHDRQRVASFNNDPLITRAIAVNILLDLYKTSERIVSDAAAITLPTQLLISGDDYVVHRQPQIDFYQRLRSPLKELHLLPGFYHDTLGEENRAQAFEKMQSFISRLYA”, “failed”. As to “MPYTVRFTTTARRDLHKLPPRILAAVVEFAFGDLSREPLRVGKPLRRELAGTFSARRGTYRLLYRIDDEHTTVVILRVDHRADIYRR”, the protein production result was “not failed”. As to “MDDNTKELEQYWDEFSQEYEEIQNESLVDIGQQLKEFLLAEKLLPTSQFLDLAGGTGKYIPHFSNFTDSYHLVDLSAKMLEFAKNKSADSNKITFTHQEQNKFLKNTKENTYDFVFSAMNPALESKEALVELNRIANGNVGILRLIFDEDNLFSQVEQLYLPNQEQNKEAQMLLYKVWLEELGWEFKSKKFRFFLSEKVSSQFFSDYFSDELSNAELAALTQLFFSETEIREMERLVIFELLYWEKC”, the protein production entry is reported as “failed”.

As to “MDSLMTLLSVLIPMFAGFFIRVPKPYLPALDKVLSVLVYAVLLLIGVSLSRVEDLGSRLDDMALTVLWLFVCTVGANLLALAVLGKLFP”, the protein production result was “failed”.

Consider “MHGSQKDTTFTKIFVGGLPYHTTDASLRKYFEGFGDIEEAVVITDRQTGKSRGYGFVTMADRAAAERACKDPNPIIDGRKANVNLAYLGAKPRSLQTGFAIGV”, for which the protein production result is recorded as “not failed”. To “RHQPEINQTPGEAQALFVWRDNQDHRDDIERHYLKMLTSARREVIIANAYFFPGYRLLHAMRNAARRGVRVKLIVQGEPDIPIVKFGAHLLYHYLVKGGVQIYEYRRRPLHGKVALADDHWATVGSSNLDPLSLSLNLEANLIIHDRVFNQTLRDNLNGLIARDCQRIDKTMLPKRNWWRLGVSVMAFHFLRHFPAWVGWLP” belongs “failed”; to “MSGLDATIINTAIPAIVSDLHGIQYMGWIVACFLLGMSVSVPIWSKLGERMGNKFAFELSLVLFILGSVLEGVAPDIYFFLISRVLMGVGAGGMGSLPYVIVGFIYPNIKRRTVILSYIAASFSAACIAGPLVGGWIVDALSWHWVFYINVPLGLISIILSIAFYRDAHKSKEKVQFDKMGAFTLIAGLTCFLIGIQMLGLASNVMVALFVIVGIILLISFIFIEKKAKSPIVPLSVFLNKALVGDFVLFALAWGAYIAVNTYLPMWSQAILGTSALIGGMTLIPNSILDIAGSQTAPYFLRRFSNYHLLIVDFTLIAITILGLILVPLNTSYWILMLIAAFSGLGVGSIFVILQIKVQIDASEKDMAPATSLSFLIRILAQTIMAAIYGVIMNLALARGIAGHRGITMTMMNKLSDAESAKSLPTAMLPTMRTIFHSGIIEIMCVALFLVVCAYVINFIYNRKEAKKVAE”, “failed”. Turning to “KVKSGWLDKLSPQGKRMFQKRWVKFDGLSISYYNNEKEMYSKGIIPLSAISTVRVQGDNKFEVVTTQRTFVFRVEKEEERNDWISILLNALKSQSLTSQSQA”, the protein production result is given as “not failed”. To “MFYEKIQTPAYILEEDKLRKNCELLASVGEKSGAKVLLALKGFAFSGAMKIVGEYLKGCTCSGLWEAKFAKEYMDKEIHTYSPAFKEDEIGEIASLSHHIVFNSLAQFHKFQAKTQKNSLGLRCNVEFSLAPKELYNPCGRYSRLGIRAKDFENVDLSTIEGLHFHALCEESAGALEAVLKVFEEKFGKWIGQMKWVNFGGGHHITKKGYDVEKLIALCKNFSDKYGVQVYLEPGEAVGWQTGNLVASVVDIIENEKQIAILDTSSEAHMPDTIIMPYTSEVLNARILATRENEKISDLKESEFSYLLTGNTCLAGDVMGEYAFDKKLKIGDKIVFLDQIHYTIVKNTTFNGIRLPNLMLLNAKNELQMIREFSYKDYSLRN” belongs “failed”; to “GIHYTSEKDIRQIVRPTIADYWEGKIDEATTYEDLEKLKQELREYRVLDPACGSGNFLYVAYQELKRLERVLLNKIYERRKRFQGEVLQQEEIGIVTPLQFFGMDTNPFAVQLARVTMMIARKIAIDKFGLTEPALPLDSLDQNIVCQDALFNDWPKADAIIGNPPFLGGSRVRLELGDKYVERIFEKFSDVKDKVDFCVYWFRLAHENLNKTGRAGLVGTNSISQGFSRRASLEYIVNNGGIIHDAISTQVWSGQANVHVSLVNWQYLKPPEYVLDHEIVKNINSSLKSETDVSNAVKLK”, “failed”. With “MDWDDEYSHNSFDLHCLLNSFPGDLEFEQIFSDIDEKIEQNAASIKHCIKEIQSEINKQCPGVQLQTTTDCFEWLTNYNYSTSESSFISHGDLIKFFKTLQDLLKNEQNQEEMTLDLLWDLSCHSSVSFPSTLSGTSFHFLSRTSLHSVEDNSSMDVKSMWDDIRLHLRRFLVSKLQSHNEINNSQQKILLKKQCLQQLLFLYPESEVIIKYQNIQNKLLANLLWNCFPSYNRDSNLDVIAHGYQSTMLKLYSVIKEDFNTLCEILAPSSMVKFIKETYLDTVTEEMAKFLENFCELQFRENAVRVVKTSKSSSKHRGAVHALG” the entry was “not failed”; with “MMTLVILLLFLLFCVLVFWISITFSIKYVLIFTAFLFSGLLVYYSFLTIAGLIHRNSKRKDRTLEHYPSVDIFIPAHNEGVVIKDTLEAMAKIEYPGKLTIYLLNDNSQDETPEIGDDFDKAYAHIRHIRVPPGEPKGKSRVLNYGLSISDGEYFCVYDADNQPEPHALRMLVEHAETTEDAVGAVGHVRTVNEKRNWLTRMISLEFQIFQLLMQSGRWLLFQTGSLTGTNMLLRRSALEELGGYDPYAIAEDAELTLRITQKGYLLPIVPESVTWEQEPEHLKILIKQRTRWLQGNLYILEKMFSSLSFFKGKLLVHSLQQVLVYVVFWLFLIISNVWFVIGLLGIFQIQYSIPLLFMWYVAYITYVSQLFSAQSVERTFTPTNIFISVIMYFTYAQLFTYLFIRSLILYLRAKSKKQVIGWDKTVRFKKDK”, “failed”; with “GMQGFFFNTRREIFKDKRVREALFYAFDFEWANKNLFFSQYKRTTSFFSNSIYASPPLPSPEEKALLAPYEKSLDERVFKEPYVVPRTDGVDVLGYNLRENLKYAQKLLESTGFSYKNMRLVDKNNKPFSFTLLLNSPAFERLALAFAKNLRVLGIEMKIQRVDLSQYVNRIKSYDFDMIVGVIGQSSFPGNEQRFYFGSLSAKEKGTRNYAGISSKAVDDLIEKIINAKDYKEQLAAIQAMDRVLLWGFYVIPHFYLP”, “failed”. Take “MAEKPKLHYFNARGRMESTRWLLAAAGVEFEEKFIKSAEDLDKLRNDGYLMFQQVPMVEIDGMKLVQTRAVLNYIASKYNLYGKDIKERALIDMYIEGIADLGEMILLLPVCPPEEKDAKLALIKEKIKNRYFPAFEKVLKSHGQDYLVGNKLSRADIHLVELLYYVEELDSSLISSFPLLKALKTRISNLPTVKKFLQPGSPRKPPMDEKSLEEARKIFRF”: the protein production result is listed as “not failed”. To “MSLTNDERILSWNETPSKPRYTPPPGAIDAHCHVFGPMAQFPFSPKAKYLPRDAGPDMLFALRDHLGFARNVIVQASCHGTDNAATLDAIARAQGKARGIAVVDPAIDEAELAALHEGGMRGIRFNFLKRLVDDAPKDKFLEVAGRLPAGWHVVIYFEADILEELRPFMDAIPVPIVIDHMGRPDVRQGPDGADMKAFRRLLDSREDIWFKATCPDRLDPAGPPWDDFARSVAPLVADYADRVIWGTDWPHPNMQDAIPDDGLVVDMIPRIAPTPELQHKMLVTNPMRLYWSEEMEGHHHHHH” belongs “not failed”.
